According to publication PMC5759053:

Target: Positive controls (Ci-M1; TRPV4-Ci, each with Ce-M1)
Assay: FRET or BRET

Sequence of cerulean-AQP4 M1 (P55088 whole entry): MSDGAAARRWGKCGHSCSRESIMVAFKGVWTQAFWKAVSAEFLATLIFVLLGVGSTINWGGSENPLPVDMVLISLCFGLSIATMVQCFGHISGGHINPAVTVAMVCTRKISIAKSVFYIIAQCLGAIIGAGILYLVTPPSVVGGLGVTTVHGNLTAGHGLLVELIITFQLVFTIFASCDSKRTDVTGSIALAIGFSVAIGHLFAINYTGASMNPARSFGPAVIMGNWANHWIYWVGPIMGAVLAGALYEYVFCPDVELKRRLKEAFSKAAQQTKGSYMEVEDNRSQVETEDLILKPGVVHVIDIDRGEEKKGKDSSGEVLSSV

FRET efficiency: 8 to 10%
Substance: cerulean-AQP4 M1 (from UniProt P55088-1 1-323) (natural protein)
